Data: paper PMC7480041 (bioRxiv, 2020)

How the values were obtained:
Assay in all cases: ELISA
[1] = target: recombinant SARS-CoV N protein (133–422) (SARS-CoV, UniProt P59595)
[2] = target: recombinant HuCoV-NL63 N protein (100–377) (HuCoV-NL63, UniProt Q6Q1R8)
[3] = target: recombinant SARS-CoV N protein (133–422) (SARS-CoV, UniProt P59595 133-422)
[4] = target: T1, recombinant HuCoV-NL63 N protein (100–377) (HuCoV-NL63, UniProt Q6Q1R8 100-377)
T1 sequence: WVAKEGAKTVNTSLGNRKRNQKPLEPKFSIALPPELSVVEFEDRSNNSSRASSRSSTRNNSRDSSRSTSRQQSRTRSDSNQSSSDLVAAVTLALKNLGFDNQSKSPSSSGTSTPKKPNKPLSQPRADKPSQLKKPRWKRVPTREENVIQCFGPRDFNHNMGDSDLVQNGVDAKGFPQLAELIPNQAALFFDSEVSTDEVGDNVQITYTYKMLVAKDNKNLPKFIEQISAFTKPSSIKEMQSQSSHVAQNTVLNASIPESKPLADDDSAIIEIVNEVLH

Sequence of recombinant SARS-CoV N protein (133–422) (SARS-CoV, UniProt P59595 133-422) (P59595 133-422): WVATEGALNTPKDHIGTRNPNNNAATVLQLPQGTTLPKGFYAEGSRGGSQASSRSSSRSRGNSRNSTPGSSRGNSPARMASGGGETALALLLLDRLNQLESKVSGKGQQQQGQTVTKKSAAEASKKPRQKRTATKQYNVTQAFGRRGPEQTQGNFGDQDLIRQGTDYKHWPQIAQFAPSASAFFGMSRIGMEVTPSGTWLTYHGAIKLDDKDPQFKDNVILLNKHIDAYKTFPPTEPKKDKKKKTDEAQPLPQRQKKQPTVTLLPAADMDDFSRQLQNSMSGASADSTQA
Sequence of recombinant SARS-CoV N protein (133–422) (SARS-CoV, UniProt P59595) (P59595 133-422): as above

Binder	corrected average ELISA signal [1]	corrected average ELISA signal [2]	corrected average ELISA signal [3]	corrected average ELISA signal [4]
mBG21 (antibody, V domains shown) VH: QIQLVQSGPELKKPGETVKISCKASGYTFTDYSMHWVKQAPGKGSKWMGWINTETGEPTYADDFKGRFAFSLETSASTAYLQINNLKNEDTATYFCALRRWGQGTLVTVSS VL: IVMTQTPKFLLVSAGDRVTITCKASQSVSNDVAWFQQKPGQSPKKLLIYFASNRYTGVPDRFTGSGYGTDFTFTITTVQAEDLAVYFCQQDYSSPWTFGGGTKLEIK	1.49	0.47		
mBG22 (antibody, V domains shown) VH: QIQLVQSGPELKKPGETVKISCKASGYTFTDYSMHWVKQAPGKGSKWMGWINTETGEPTYADDFKGRFAFSLETSASTAYLQINNLKNEDTATYFCALRRWGQGTLVTVSA VL: IVMTQTPKFLLVSAGDRVTITCKASQSVSNDVAWFQQKPGQSPKLLIYFASNRYTGVPDRFTGSGYGTDFTFTITTVQAEDLAVYFCQQDYSSPWTFGGGTKLEIK			0.76	0.51
mBG67 (antibody, V domains shown) VH: EVQLVESGGGLVQPGGSLKLSCAASGFTFSNYGMSWVRQTPDKRLELVATINRNGGSTYYLDSVKVRFTISRDNAKSTLFLQLSSLKSDDTAMYYCARIYDFDEDYFDVWGAGTTVTVSS VL: QIVLTQSPAIMSASLGERVTMTCTASSSVSSSYLHWYQQKPGSSPKLWIYSTSNLASGVPARFSGSGSGTSYSLTISSMEAEDAATYYCLQYHRSPWTFGGGTKLEIK			0.39	
mBG17 (antibody, V domains shown) VH: EVKLEESGGGLVQPGGSMKFSCVASGFTFSDYWMNWVRQSPDKGLEWVAEIRLKSNNYATHYAASVKGRFTISRDDSKSSVYLQMNNLRAEDSGIYYCTRSAMDYWGQGTSVTVSS VL: DIVMSQSPSSLAVSVGEKITMSCKSSQSLLYTSDQKNYLAWFQQKPGQSPKLLIFWASTRDSGVPDRFTGSGSGTDFTLTISSVKAEDLAVYYCQQFYNYPRTFGGGTKLEIK			1.39	0.54
